Measurements reported in patent publication US20180003720A1.

Molecular target: γ-H2AX peptide standard (synthetic peptide …, serine at position 27 phosphorylated)
Test: sandwich chemiluminescent ELISA: plate-coated JBW301 captures the γ-H2AX peptide standard; detected with rabbit polyclonal anti-H2AX (Abcam) and goat anti-rabbit HRP

γ-H2AX peptide standard (synthetic peptide …, serine at position 27 phosphorylated), sequence (peptide, as listed by the source): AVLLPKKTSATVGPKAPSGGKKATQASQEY

With “Anti-γ-H2AX (Ser139) mouse monoclonal antibody, clone JBW301 (Millipore)” the Average RLU (n = 3) at 5 pM γH2AX standard was 993000 RLU, the Average RLU (n = 3) at 10 pM γH2AX standard was 2.02e+06 RLU and the Average RLU (n = 3) at 20 pM γH2AX standard was 4.6e+06 RLU. For the same substance, the Average RLU (n = 3) at 40 pM γH2AX standard was 1e+07 RLU, the Average RLU (n = 3) at 80 pM γH2AX standard was 2.08e+07 RLU and the Average RLU (n = 3) at 160 pM γH2AX standard was 3.74e+07 RLU. It also gave an Average RLU (n = 3) at 320 pM γH2AX standard of 5.88e+07 RLU and an Average RLU (n = 3) at 640 pM γH2AX standard of 7.92e+07 RLU.
